The assay deals with cyXR, xanthorhodopsin from an Antarctic filamentous cyanobacterium (genus Pseudanabaena) (Pseudanabaena (Antarctic MAG, Dry Valleys)). Briefly: cryo-EM structure.

In general, stoichiometry N refers to the number of molecules, sites or subunits per partner or assembly.

Substance “cyXR, xanthorhodopsin from an Antarctic filamentous cyanobacterium (genus Pseudanabaena) (natural protein)” gave a stoichiometry N of 5.
